Measured values published in patent US20250282876A1, “STABLE Fc FRAGMENTS, CONJUGATES, COMPOSITIONS, AND METHODS OF USE” (PURDUE RESEARCH FOUNDATION, priority 2022, published 2025).

Experiments:
[1] = molecular target: His-tagged human FcγR variant CD32b (human) (UniProt P31994); experiment: BLI (Octet HTX), His-tagged FcγR on anti-Penta-HIS biosensors, 1:1 fit; * denotes weak binding/inaccurate KD
[2] = molecular target: His-tagged human FcγR variant CD32b (human) (UniProt P31994); experiment: BLI (Octet HTX), His-tagged FcγR on anti-Penta-HIS biosensors, Fc in solution, 1:1 fit

Row | Substance | Kd [1] | Kd [2]
1 | IgG1-CH2-CH3-WT, wild-type Fc region of human IgG1 (from UniProt P0DOX5 218-449) | 3760 nM | 
2 | IgG1-CH2-CH3-DLE mutant (Ser239Asp/Ala330Leu/Ile332Glu), monomeric Fc fragment (from UniProt P0DOX5 218-449) |  | 1.34 nM
